Results published in paper PMC7485978, “A tyrosine phosphoregulatory system controls exopolysaccharide biosynthesis and biofilm formation in Vibrio cholerae” (PLoS Pathogens, 2020).

How the values were obtained:
[1] = biological target: VpsO-503^(E519A, R522A, R525A) kinase domain; experiment: SEC-MALS; 25 uL of each VpsO protein at 1.5 mg/mL injected on a silica-based SEC analytical HPLC column; 25 mM Tris pH 8.0, 50 mM NaCl, 1 mM DTT; room temperature
[2] = biological target: VpsU, low-molecular-weight phosphotyrosine protein phosphatase; experiment: SEC

| Substance | stoichiometry N [1] | stoichiometry N [2] |
| --- | --- | --- |
| VpsO-503^(E519A, R522A, R525A) kinase domain (domain or fragment) | 2 |  |
| VpsU, low-molecular-weight phosphotyrosine protein phosphatase (enzyme) |  | 2 |
